This assay addresses Eno_(N-Strep), N-terminally Strep-tagged enolase encoded at its native locus (Bacillus subtilis), P37869. Description: pull-down. Particulars: remark: other sources report otherwise.

Chain of Eno_(N-Strep), N-terminally Strep-tagged enolase encoded at its native locus (Bacillus subtilis), P37869 (P37869 whole entry): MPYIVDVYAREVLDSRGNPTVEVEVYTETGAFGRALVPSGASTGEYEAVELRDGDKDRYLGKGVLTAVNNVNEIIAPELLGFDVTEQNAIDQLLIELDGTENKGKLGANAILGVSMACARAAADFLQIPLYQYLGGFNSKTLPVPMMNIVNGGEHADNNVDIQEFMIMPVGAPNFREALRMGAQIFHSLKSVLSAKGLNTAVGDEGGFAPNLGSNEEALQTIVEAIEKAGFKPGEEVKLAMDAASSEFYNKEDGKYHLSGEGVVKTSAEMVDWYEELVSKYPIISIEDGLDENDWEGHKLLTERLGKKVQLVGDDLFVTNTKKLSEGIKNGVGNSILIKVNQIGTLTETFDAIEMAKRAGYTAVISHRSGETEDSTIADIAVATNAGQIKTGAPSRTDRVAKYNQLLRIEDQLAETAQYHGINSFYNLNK

B1: RNase Y (native) of B. subtilis, O31774 1-520 (enzyme)
chain: MTPIMMVLISILLILLGLVVGYFVRKTIAEAKIAGARGAAEQILEDAKRDAEALKKEALLEAKDEIHKLRIDAEQEVRERRNELQKQENRLLQKEENLDRKHEGIDKREAMLEKKDHSLNERQQHIEEMESKVDEMIRMQQSELERISSLTRDEAKQIILERVENELSHDIAIMTKETENRAKEEADKKAKNILSLALQRCAADHVAETTVSVVNLPNDEMKGRIIGREGRNIRTLETLTGIDLIIDDTPEAVILSGFDPIRRETARIALDKLVQDGRIHPARIEEMVEKSRREVDDYIREMGEQTTFEVGVHGLHPDLIKILGRLKFRTSYGQNVLKHSMEVAFLAGLMASELGEDAKLAKRAGLLHDIGKAIDHEVEGSHVEIGVELATKYKEHPVVINSIASHHGDEEPTSIIAVLVAAADALSAARPGARSETLENYIRRLEKLEEISESYEGVEKSFAIQAGREVRIMVKPDSINDLEAHRLARDIRKRIEDELDYPGHIKVTVIRETRAVEYAK
Take B1: the less RNase Y co-eluted after RNase A treatment of the extract lay in the range of 20 to 30%.

The values are drawn from article PMC7834092.
